experiment: soluble on expression in E. coli; label from the status in PepcDB or PDB records

Sequence	soluble on expression in E. coli
MDGIAEPVIIKDDASRFVFINDAACDLLGKDRNQLIGRTDHDILPGEQADRIVSLDRIVLSTSEGHELEEQITTPDGTQRTLLTKKRCVSIPAGSTQEKFVVVTIVDIT	not soluble
MGSDKIHHHHHHMYGVMIMKLKTNVFHFTPFSKKQLQVLTWWVNPSTKDSEAIICDGSVRAGKTVIMSLSYVMWAMHTFNGQQLGMAGKTIGSFRRNVLRPLKQMLAGRGYKVIDHRTDNMFEVVKNGKANYFFIFGGKDEASQDLVQGLTAAGFFFDEVALMPQSFVNQATARVSVSGGKYWFNMNPEGPYHWFKLNWIDDLKGKRALRIHFRMEDNPSLSEDVIGRYKRNYSGVFYQRYILGLWVMSEGVIYDNFNRETMVVSEPPGRCTKYYVSVDYGTQNPTVFLLWGFYNGVWYCLKEYYYDGRHSARQKTDDQYANDLDEFVGNINARIIIDPSAASFIAVLRNRHYRIIRADNDVLNGIRETQSAMNNGLIKFTDNLPNLFKELASYIWDDKASSNGEDKVIKEHDHAMDSMRYFVYMVLRHNNKAKVIKNKYF	not soluble
MGSDKIHHHHHHMHNKFYRGRFAVAPMLDWTTRHCRYFHRQFSQQALLYTEMITAPAILHAKYDLLEYDPAEQPVALQLGGSDPTQLANCAKLVQARGYTEINLNVGCPSDRVQNGMFGACLMANADLVADCIKAMQDVVDIPVTIKHRIGIDTLDSYAFLCDFIDKIQPYSQDFIVHARKAWLSGLSPKENREIPPLDYERVYQLKRDFPQLNISINGGIKTIDEIKQHLTKVDGVMVGREAYQNPALLGEIDQQLFDQNQPLITARIAVENMLPYIEQQLSKGVYLNHIVRHMLGAFQNCKGARQWRRHLSENACKQGAGIEVVEQALRFVTE	not soluble
KKNLLYLGLTGYLLFALCTRLQAQTDSLQAHRYVTRATMYGVGFTNVFDTYLSPQEYKGIDFRISRETIRMTKLFDGNVSVQNFFQADVGYTHNRADNNNTFSGLVNWNYGLHYQFRLTENFKLLAGGLFDVNGGFVYNLRNSNNPASARAYVNLDASGMAIWHLKIKRYPMVLRYQVNVPMIGLMFSPHYGQSYYEIFSLGNSSGVIQFTSLHNQPSLRQMLSVDLPIGYTKMRFSYLADLQQSNVNGIKTHTYSHVFMVGFVKDLYRVSNKKGANLPPSVRAY	not soluble
MSLKLRGHHLICLQFFRGEGYSGEFVENVKKIMERLESGETVEVVAGVDDICVACPYNRGYCGKDETSEERVREMDKAAVRLLGVSEKTTWREVAERIEKVLNEWRVFCEDCDWKEVCYGEGHHHHHH	soluble
MAHHHHHHMHMFTNDWKSILAPLKSCRIKQQFDDREFLADFAMGLKLDFNNKYLVLDASTELLKFTAIESSDCCNRNCLPKMCIPINMKILTYGRELSRPDIVVEKDCSCTMLCLNRPTIKMYDFSNNNNKELIGTIKAPFSCCSYKFDLYDSAMRKIIYMDDTCCQLSILFPCPCGPFKFSNFFLRDAKTHEKVAHLQKEVPFLKFVKRDIDNYTLNFEQVQNPEWKMMLLAFSLFMDYIYYDRK	not soluble
MSLTQPPQQAISAAHSELEQNHRVLLQLMDTLVSQIKDYSEDVEFNLQNDSTIKNTIVEILSFISRSNQKDQLSLKVSQAVVNSLFGSNESKLCRDVLSLLLEKLCSLSIVARKDVVWWLVYALDPRKFNVPVVRSLLEVNLINIAEFDAVLVTAMKNGMAGATEFSMNLIRDTVMADSPILMRLDFIRILGYLRTINTPEIKAFLEEYEQCRAVPVSKTTSITKVERYYLVFTEWVKLQQRVETDDVVNIVFIRQLFEKGVIDSKEKVIEFIKAALELSVNSFKQSDPTGEVFTSIDALSRLITSLLVVQELNVEERKEYLNLLLSVVTLVFAKDHQTNMTSFNERPYFRLYSSLLSDWDKLRDHHFIRVSDSVVRKSLIEFDQYFFDIFASFLHSYQPIAFPGFSFAWITLISHRMFLPKVLRSKELYGWDKLVLLLIDLMKFLSQYIKKDNVPDSISVIYKGALRIFLGISNDVPEFLIQNHYKLVKNVPPTCIQLRNIILSAIPKKMMIPDPFVSEITEDNCKDIPQVFYDPSQDLKSLKKPIINYLRIPSSSLLRTICGGMFRTELEYENGIGYDENNVDVNLIHAIVTHVAVEVGLEVEKASKNAVFNVKSSYYTLLFGLLSDGNDEVKFHIIQAMVNQLRYPNVHTHWFNFALKLMFQSDQWPDDQLSTIQEIILRSLLERIIVNKPHPWGVVVTFMDLLKLEGTKMIEKPFINDIPEIHAIMKNLQKYALTSSSEGHHHHHH	soluble
MGSSHHHHHHSSGLVPRGSHMASMGRIESAFDLGFIRGMTFGFVGQHGTWGTDEARASMRALAEQPFNWVTLAFAGLMEHPGDPAIAYGPPVTVSDDEIASMAELAHALGLKVCLKPTVNCRDGTWRGEIRFEKEHGPDLESWEAWFGSYSDMMAHYAHVAKRTGCEMFCVGCEMTTAEPHEAMWRETIARVRTEYDGLVTYNCNHGREEHVRFWDAVDLISSSAYYPIDRWRDRVPVLREVAEAHEKPLFFMEVGCPSRSGSGACPWDYRHPGAVCLDEQARFYEAMFAAMPDEPWFKGYMLWEWPWKLYPREAASEDGSYCIYGKPAEDVVARAFSAIANR	soluble
MGSDKIHHHHHHMLCNETTSTRDLILLGLKRHGERSVGEMAKELEITEMAVRRHIQALEKDGFVQTKLVRQAMGRPTTKYLLTEKGEERFPRNYLPLTLGFLKDIEELSGIDMIHVLFEKRKERLLAEYANQMKGCSFSERVEVLAQIQNDNGYMVEWKKIDDDTYQFIEYNCPISQVAKAYPVACACEKKLFKELLQTEAVVDNCCAAKDEAGYCSYTLKKPSVDG	not soluble
NSSKCYIQVTGMTCASCVANIERNLRREEGIYSILVALMAGKAEVRYNPAVIQPPMIAEFIRELGFGATVIENIEGR	soluble
MVADIELDAAQSIAAVLFDKDGTLLGYDASWGPVNRELASIAAKGDAALADRLLAACGMDPVTGHVVPDSLLAAGNTAEIAAGLVAAGSSCDVVELTQRLDRLFTEAADKSVPVTDLKAFFARLKARGYKLGIASSDNENSIRQTAIRFGFEEDIDFVAGYDSGYGTKPQPGMVLGFCEAIGFPPERVAVVGDNNHDLHMAKNAGAGLRIAVLTGTGSRESLGADAHYCFDDITGLEALLPERAV	not soluble
GHMPTKQQLLYEGKAKKIYATDEPDVLWVEYKDSATAFNGEKKATIAGKGRLNNEISSLLFLKLREAGIANHFIEKLSPTEQLVRRVTIIPLEVVVRNVVAGSLAKRIGLEEGTPLEAPLVEFYYKNDDLGDPLLLEDHIFILKLASREEVAALKQAALAVNDVLRLHFAERNVRLIDFKLEFGRTADGAILLADEISPDTCRLWDAKTNEKLDKDVFRRDLGSLTDAYEVILQRLGGESACTK	soluble
SAEAEGLADWMSKLNETFTTVPLCYIAIPGSHDAMAYSLDMDSPLLEPDSLITMDLICCGCCRSIVKNWSITQDKTISEQLDAGMRYFDLRVAGKPGSSDFFFYHGLYTTITVKEAMEEVDTWLGKHSKEVVILAFSHFKEMSTEQHTKLMTFLKDHFKAKLCPDDGMPSLKDCWDKAYQVILSYDDRNRKQDRVLWPGIKYWWANNSDPNEAILFLDNKKQSGRPKGFFVAGLNLTFYGCSIFSNLTASLKEKTVTAYPLLLDWVKKQRPGSDTQSINIIAGDFFDVNSFAQDIIQLNDAKTN	soluble
AGGLKYDLDLNLSHYKSVLKSMANPDYLYEYGALRTYVGGEIGEFWVYQTAGIFQNQAEVDEWNTAHGYKDQNGNWQPLQPVAKPGDIRFIDQNGDGMLDTNDRVKVGSGTPKVSLGFNINLTYKDFDLVANFYGDFGAKRYNYTKYQLERMDHVFNYGKNALNAWTPENPDTDIPRAVSGDPNKNSRTSTRFVENGDYLRLNNLQIGYNLPVKYCKKMGLSNLRIYVGATRLFTITNYKGYDPSTGSSVGQMGYDYAAIPLSRDFMMGLKFGF	not soluble
MAHHHHHHMSISIRSTAQRQLARRQPPTTSSSSVSLPRAAFAPASRSASAVEATSESASSSQVPEQQEATPTRILDNARSSSCAAAPPPFSASSDQRSDQINKCIHDTSTLTSKPPPSASSASSRGAAAPSLPPSAPSSTTGAPRSGHDAEPEGLHDAASSTAAPSGAGSSAVANSQRTAASHSLLYSVSRFTEPVKRIILIRNGRSEANEDVRAYVQTPDWRIPLVEEGKREAIAAGRALSELIGDGPVYFYYSPYIRSRQSLRYVLQGFDEARLSGLSHSREWWEDEETAAVASAAAAAESSTLKCATASADEAGSPPLLAPAPSAISTNATSSDAQCCFHRDPSLVLNRGTSNNIIGVREDVRLRDGDIGRYTSADELMHHLVERERYGRFFYRFPFGESGADVCDRVTSFLDAFQRERVEFPMDTSVVIITHGLTMRMLIKRWFYLTVETFHKMKSPPPGSLCTLTRLHHRSCFRLDECCVESMNLPLSLNEFNGYKYRNKQLLGSMSSGAPYM	not soluble
MDVLEISKKILHEGPVCDHCMGRQFAKLSTGLSNRERGQAVKLALALEGDRIYKSENDDSLLKELAPCSALARKTLRIEGENEQCWVCLDQFKKLDFWAEEAAKALEGLEYSTFLVGTKVSGLLSENEEILWAEAGTAYAEQLKTELNREVGKRIAERVNKEVDFENPDIVITLDLATNKFELQVRSVYIYGRYLKKVRGIPQTRWPCRKCRGKGCEKCGFTGKQYPESVDELIKGPVVEAFEAVDTAFHGSGREDIDALMLGSGRPFVVEAKSPVKRSADLEALAAKINENAAGKVEVRDLRFVEKGMIETLKSSKADKTYKLKVTFKEPVSEEKLKSCLESLNGTEIAQQTPKRVVHRRADLIRKRYVHSITLNELTDDGYAYITVNCEGGLYVKELISGDEGRTNPSLTGLLGIPALVEDLDVVNVEILEHHHHHH	soluble
MNPGGAEVSVVIPAWNAEATLGRALASVRAQTLAPRQVIVVNDGSSDATPEIAARMATKTFPVTVIDRTGRGSGPAAARNAGIAAAGEPFVAFLDADDVWLPDKLARQMAALRASPDAVLCCCDAQWVGEDAPARTAHPTIYEDRPIKGGAEAWKEILLDCYVGTPCVVARRAALIEAGGFDERLVVGEDQDLWIRLALQGPVIALPEVLVRYGLSADSHMARHRALAASLWLPHFEALVSGLGARLSAGERDAILRARLWRMARSVYLDGRKDLGLSLMARAVAHGLPRRARMVFLARARLRSALGRNGLEHHHHHH	not soluble
GLDTGALDQQQNNNGRESIRTVNVSVNNAVTKIVSNMSPAVVGVVNIQKSDIWGESGEAGSGSGVIYKKNDHSAYVVTNHHVIEGASQIEISLKDGSRVSADLVGSDQLMDLAVLRVKSDKIKAVADFGNSDKVKSGEPVIAIGNPLGLEFAGSVTQGVISGTERAIPVDSNGDGQPDWNAEVLQTDAAINPGNSGGALLNMDGKVIGINSMKIAESAVEGIGLSIPSKLVIPVIEDLERYGKVKRPFLGIEMKSLSDIASYHWDETLKLPKNVTNGAVVMGVDAFSPAGKAGLKELDVITEFDGYKVNDIVDLRKRLYQKKVGDRVKVKFYRGGKEKSVDIKLSSA	not soluble
MEFKNPGFTGLFVIGRKYFMTAENTEMTLHPKKLPPNAGKGRVKGVPNKTTSLLKESVIEAAKRAGSKYGKEGLISYLEKQALKCPAAYLALLGKVLPLQVTGEDGGAIKMIGRVEIAPLGHDNTTD	not soluble
MSLSEILTIGEPIVTFASKEPDVSLRDALEFHKILGGAELNVAIGAQRLGHSVDYISQVGEEPLGDYVIKTIKEHHVGTRYITRDADYWTAFQLKDRVTQGNPTTQNYRRGSAAAHLTPAVVDQIDLTDVRAAHMSGIFPAISATAEAAFRTLLKRLEAANILTTFDPNLRPTLWPSRGKMVTTLNELAGHAEIVLPGVEEGEILMGSTDPEKIADFYLRGARTKVVIVKVGPAGAYVKQQSGESYTVTGFKVAQVADTVGAGDGFAMGVLTALLEHKSLRSAVMRGNAVGALQVQTYGDNDGYPTPAGLQAFYQQEGVVEEGHHHHHH	not soluble

Reference: the DeepSol protein solubility set
